Data taken from patent publication US20220313840A1 (ACADEMIA SINICA, published 2022).

Tests used:
[1] = molecular target: T1, endogenous EGFR on human carcinoma cell lines (human, UniProt P00533 25-1210); assay: cell ELISA on human carcinoma cell lines with endogenous EGFR
T1 construct: whole, on cells; EGFR expression of the cell lines was checked by Western blotting; also called endogenous cellular EGFR; EGFR on FaDu and Ca9-22 cells

[2] = molecular target: T1, endogenous EGFR on human carcinoma cell …; assay: confocal microscopy of FaDu and Ca9-22 cells, anti-FLAG detection
Protocol: We produced soluble scFv from EGFR-PC10 and designated it as EGFR-s10. Target binding and internalization are essential requirements of LTL-targeting moieties. We investigated these features of EGFR-s10 in SCCHN cancer cell lines. FaDu cells and Ca9-22 cells were separately incubated with EGFR-sl0 at 4° C. or 37° C. for 30 min and compared with isotypic IgG controls. EGFR-sl0 bound to the cell membrane of FaDu and Ca9-22 cells at 4° C. […] (FIGS. 3A-B).

[3] = molecular target: T1, endogenous EGFR on human carcinoma cell …; assay: cell uptake, including EGFR-knockdown cells
Protocol: To evaluate whether internalization and targeting were preserved after EGFR-s10 ligation to liposomes, we tested EGFR-s10-conjugated liposomal SRB in the SCCHN cell lines FaDu and Ca9-22 cells at 37° C. for 30 min (FIGS. 3C-D). No compromise of internalization capacity was discernable in either cell line compared to the previous soluble EGFR-s10.

B1: EGFR-PC10 phage clone (phage-displayed human anti-EGFR scFv) (scFv)
scFv: EVQLVESGGGLVQPGGSLRLSCAASGFNLSSFWMSWVRQAPGKGLEWVANINHDGSDKYYVDSVKGRFSISRDNTKNSVYLQMDSLRGEDTAVYYCAKGKSLYDGSALDMWGQGTMVTVSSGGGGSGGGGSGGGGSDIVMTQSPSTLSASVGDRVTITCRASQTIGRWLAWYQQKPGKAPKLLIYGASSLQSGVPSRFSGSGSGTDFTLTISSLQPEDFATYYCQQSYSTLWTFGQGTKLEIKR
notes: Tested as whole phage particles displaying the scFv, detected with anti-M13 antibody; also called EFGR-PC10 phage; not shown: phage coat protein fusion of the M13 display system; not described
binding result [1]: binds

B2: EGFR-s10 scFv (soluble scFv generated from phage clone EGFR-PC10) (scFv)
scFv: B1 scFv
notes: Expressed in E. coli HB2151 from the pFHC vector; also called EGFR-sl0; soluble anti-EGFR human scFv; not shown: flag, 6xHis and cysteine tag from the pFHC vector
binding result [2]: binds

B3: EGFR-s10-conjugated ligand-targeting liposomes (LTLs) (other)
scFv: B1 scFv
modifications: reduced cysteine of the tag conjugated to Maleimide-PEG-DSPE inserted in a PEGylated liposome loaded with doxorubicin or vinorelbine
notes: also called EGFR-s10-LD; EGFR-s10-LV; not shown: flag, 6xHis and cysteine tag from the pFHC vector
binding result [3]: binds
